This is an account of results in US20050120396.

The target in the data set is GST-MKK4 fusion protein [GST: P08515].
Sequence of GST-MKK4 fusion protein [GST: P08515] (P08515 whole entry, looked up, the tested form may be a part): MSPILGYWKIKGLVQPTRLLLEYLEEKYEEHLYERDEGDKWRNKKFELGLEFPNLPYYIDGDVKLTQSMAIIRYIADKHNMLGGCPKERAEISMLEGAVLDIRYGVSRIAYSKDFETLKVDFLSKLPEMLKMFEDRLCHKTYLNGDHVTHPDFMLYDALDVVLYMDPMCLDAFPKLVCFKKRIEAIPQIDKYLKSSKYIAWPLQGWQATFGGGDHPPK

B1: purified mouse MEKK1 (protein)
chain: MVTAVPAVFSKLVTMLNASGSTHFTRMRRRLMAIADEVEIAEVIQLGVEDTVDGHQDSLQAVAPTSCLENSSLEHTVHREKTGKGLSATRLSASSEDISDRLAGVSVGLPSSTTTEQPKPAVQTKGRPHSQCLNSSPLSHAQLMFPAPSAPCSSAPSVPDISKHRPQAFVPCKIPSASPQTQRKFSLQFQRNCSEHRDSDQLSPVFTQSRPPPSSNIHRPKPSRPVPGSTSKLGDATKSSMTLDLGSASRCDDSFGGGGNSGNAVIPSDETVFTPVEDKCRLDVNTELNSSIEDLLEASMPSSDTTVTFKSEVAVLSPEKAENDDTYKDDVNHNQKCKEKMEAEEEEALAIAMAMSASQDALPIVPQLQVENGEDIIIIQQDTPETLPGHTKAKQPYREDAEWLKGQQIGLGAFSSCYQAQDVGTGTLMAVKQVTYVRNTSSEQEEVVEALREEIRMMGHLNHPNIIRMLGATCEKSNYNLFIEWMAGGSVAHLLSKYGAFKESVVINYTEQLLRGLSYLHENQIIHRDVKGANLLIDSTGQRLRIADFGAAARLASKGTGAGEFQGQLLGTIAFMAPEVLRGQQYGRSCDVWSVGCAIIEMACAKPPWNAEKHSNHLALIFKIASATTAPSIPSHLSPGLRDVAVRCLELQPQDRPPSRELLKHPVFRTTW
In the case of B1, the “phosphorylation of GST-MKK4 (32P incorporation in kinase reaction, SDS-PAGE and imaging)” value is “The ability of extracts containing his-tagged hMEKK1 to phosphorylate GST-MKK4 was comparable to the activity of purified mouse MEKK1”.

B2: His-tagged hMEKK1 (polyhistidine-hMEKK1 fusion) (protein)
chain: HHHHHHMENKETLKGLHKMDDRPEERMIREKLKATCMPAWKHEWLERRNRRGPVVVKPIPVKGDGSEMNHLAAESPGEVQASAASPASKGRRSPSPGNSPSGRTVKSESPGVRRKRVSPVPFQSGRITPPRRAPSPDGFSPYSPEETNRRVNKVMRARLYLLQQIGPNSFLIGGDSPDNKYRVFIGPQNCSCARGTFCIHLLFVMLRVFQLEPSDPMLWRKTLKNFEVESLFQKYHSRRSSRIKAPSRNTIQKFVSRMSNSHTLSSSSTSTSSSENSIKDEEEQMCPICLLGMLDEESLTVCEDGCRNKLHHHCMSIWAEECRRNREPLICPLCRSKWRSHDFYSHELSSPVDSPSSLRAAQQQTVQQQPLAGSRRNQESNFNLTHYGTQQIPPAYKDLAEPWIQVFGMELVGCLFSRNWNVREMALRRLSHDVSGALLLANGESTGNSGGSSGSSPSGGATSGSSQTSISGDVVEACCSVLSMVCADPVYKVYVAALKTLRAMLVYTPCHSLAERIKLQRLLQPVVDTILVKCADANSRTSQLSISTLLELCKGQAGELAVGREILKAGSIGIGGVDYVLNCILGNQTESNNWQELLGRLCLIDRLLLEFPAEFYPHIVSTDVSQAEPVEIRYKKLLSLLTFALQSIDNSHSMVGKLSRRIYLSSARMVTTVPHVFSKLLEMLSVSSSTHFTRMRRRLMAIADEVEIAEAIQLGVEDTLDGQQDSFLQASVPNNYLETTENSSPECTIHLEKTGKGLCATKLSASSEDISERLASISVGPSSSTTTTTTTTEQPKPMVQTKGRPHSQCLNSSPLSHHSQLMFPALSTPSSSTPSVPAGTATDVSKHRLQGFIPCRIPSASPQTQRKFSLQFHRNCPENKDSDKLSPVFTQSRPLPSSNIHRPKPSRPTPGNTSKQGDPSKNSMTLDLNSSSKCDDSFGCSSNSSNAVIPSDETVFTPVEEKCRLDVNTELNSSIEDLLEASMPSSDTTVTFKSEVAVLSPEKAENDDTYKDDVNHNQKCKEKMEAEEEEALAIAMAMSASQDALPIVPQLQVENGEDIIIIQQDTPETLPGHTKAKQPYREDTEWLKGQQIGLGAFSSCYQAQDVGTGTLMAVKQVTYVRNTSSEQEEVVEALREEIRMMSHLNHPNIIRMLGATCEKSNYNLFIEWMAGGSVAHLLSKYGAFKESVVINYTEQLLRGLSYLHENQIIHRDVKGANLLIDSTGQRLRIADFGAAARLASKGTGAGEFQGQLLGTIAFMAPEVLRGQQYGRSCDVWSVGCAIIEMACAKPPWNAEKHSNHLALIFKIASATTAPSIPSHLSPGLRDVALRCLELQPQDRPPSRELLKHPVFRTTW
Consider B2, for which the “phosphorylation of GST-MKK4 (32P incorporation in kinase reaction, SDS-PAGE and imaging)” value was “The ability of extracts containing his-tagged hMEKK1 to phosphorylate GST-MKK4 was comparable to the activity of purified mouse MEKK1, and significantly above the background levels seen with control extracts”.
